Results: article PMC6141585

Biological target: actin filaments in growth cones of cultured hippocampal neurons (mouse (endogenous in cultured hippocampal neurons))
Assay: FRET or BRET; acceptor photobleaching FRET in growth cones of fixed 2 DIV hippocampal neurons; donor GFP or GFP-tagged construct, acceptor TRITC-phalloidin on actin filaments

FRET efficiency: 52%
Substance: MAP6-E-GFP (rat MAP6-E fused to GFP) (from UniProt Q63560 1-614) (natural protein)
